The DeepSol protein solubility set

Experiment: soluble on expression in E. coli; label from the status in PepcDB or PDB records
For “MISATYRLQLNKNFNFGDVIDNLWYFKDLGVSHLYLSPVLMASPGSNHGYDVIDHSRINDELGGEKEYRRLIETAHTIGLGIIQDIVPNHMAVNSLNWRLMDVLKMGKKSKYYTYFDFFPEDDKIRLPILGEDLDTVISKGLLKIVKDGDEYFLEYFKWKLPLTEVGNDIYDTLQKQNYTLMSWKNPPSYRRFFDVNTLIGVNVEKDHVFQESHSKILDLDVDGYRIDHIDGLYDPEKYINDLRSIIKNKIIIVEKILGFQEELKLNSDGTTGYDFLNYSNLLFNFNQEIMDSIYENFTAEKISISESIKKIKAQIIDELFSYEVKRLASQLGISYDILRDYLSCIDVYRTYANQIVKECDKTNEIEEATKRNPEAYTKLQQYMPAVYAKAYEDTFLFRYNRLISINEVGSDLRYYKISPDQFHVFNQKRRGKITLNATSTHDTKFSEDVRMKISVLSEFPEEWKNKVEEWHSIINPKVSRNDEYRYYQVLVGSFYEGFSNDFKERIKQHMIKSVREAKINTSWRNQNKEYENRVMELVEETFTNKDFIKSFMKFESKIRRIGMIKSLSLVALKIMSAGIPDFYQGTEIWRYLLTDPDNRVPVDFKKLHEILEKSKKFEKNMLESMDDGRIKMYLTYKLLSLRKQLAEDFLKGEYKGLDLEEGLCGFIRFNKILVIIKTKGSVNYKLKLEEGAIYTDVLTGEEIKKEVQINELPRILVRM”, the “soluble on expression in E. coli” value was “soluble”.
In the case of “LFKPNYHFFPITGWMNDPNGLIFWKGKYHMFYQYNPRKPEWGNICWGHAVSDDLVHWRHLPVALYPDDETHGVFSGSAVEKDGKMFLVYTYYRDPTHNKGEKETQCVVMSENGLDFVKYDGNPVISKPPEEGTHAFRDPKVNRSNGEWRMVLGSGKDEKIGRVLLYTSDDLFHWKYEGAIFEDETTKEIDCPDLVRIGEKDILIYSITSTNSVLFSMGELKEGKLNVEKRGLLDHGTDFYAAQTFFGTDRVVVIGWLQSWLRTGLYPTKREGWNGVMSLPRELYVENNELKVKPVDELLALRKRKVFETAKSGTFLLDVKENSYEIVCEFSGEIELRMGNESEEVVITKSRDELIVDTTRSGVSGGEVRKSTVEDEATNRIRAFLDSCSVEFFFNDSIAFSFRIHPENVYNILSVKSNQVKLEVFELENIWL”, the “soluble on expression in E. coli” value is reported as “soluble”.
For “MGSDKIHHHHHHMINKYKVSENRLSIMEIERFAVHDGPGIRTVVFLQGCPLHCSWCSNPESQKRKPHLLHIKNKCIGCGRCEAICPRGNISIQDHFPVFNRQACVACKACERICPQNAIKFVGESITSSEIMEILLRDRDYYLNSGGGVTFSGGEAFTQFEGLMDLLIQCKNEKLHTSVETCGQVNLDKIKQALPLIDLFLFDIKHTDKDLLQKETGANLDTILTNLRYISSKSANKVTIRVPVIPGFNFNENTLREIFMLAKENRIKCVHLLPYHTLGKDKYEQLGLTYPYSCEQMLAKEELFPFKEMGEKMGLEIRIGG”, the “soluble on expression in E. coli” value was “not soluble”.
With “MGRGIAQIIRHDEPTDEIVDKFYRQINNPVLANINLQWEGDGDSPIIYPCNPPDLFAEQPLVLFGKKPDARGGKLHITGIVAGGTHYQHTFDLNFEETGNPAIAQLWGRYRIKELMNLMVSGETKLGVEAVTDTALTYQMLSQYTAFVAVSDDVRVDSLQETVSVQVPVEMAEGISYLGIFGSAVSAAAPIMANMVLEHHHHHH” the “soluble on expression in E. coli” value was “not soluble”.
In the case of “MGSDKIHHHHHHMPAILDLFNQKTVLDYVQNRQYPQLLGDTLFPSVKIDQLDFEYLRGGSKTPIIASVSAFDTEAEIGSREASVQAAELGYIKRKMQLKEKDLIALRNPRTPAEQNYLTSLVYNDLDVLVQGVYARVEKMRMEALATGTISIDENNMNFGVTYNVPAEHQVTAATSWDADGADPIKDLQDWFALLDYAPTRILTSSKVQTALIRSKAFADYFKTAGLLPSVGSLNAVLQSFGLPTIVTYDAKYRKQGANGIYTVERYFPEDTLVAFGDDQLGQTVYGPTPEESRLIATPGVQQGTVGNVFTTVYETTQDPIATWEKAAATALPSFPEAENVLQAKVLIPKP”, the “soluble on expression in E. coli” value is reported as “not soluble”.
In the case of “HGPWPAAGAWELTILHTNDVHSRLEQTSEDSSKCVNASRCMGGVARLFTKVQQIRRAEPNVLLLDAGDQYQGTIWFTVYKGAEVAHFMNALRYDAMALGNHEFDNGVEGLIEPLLKEAKFPILSANIKAKGPLASQISGLYLPYKVLPVGDEVVGIVGYTSKETPFLSNPGTNLVFEDEITALQPEVDKLKTLNVNKIIALGHSGFEMDKLIAQKVRGVDVVVGGHSNTFLYTGNPPSKEVPAGKYPFIVTSDDGRKVPVVQAYAFGKYLGYLKIEFDERGNVISSHGNPILLNSSIPEDPSIKADINKWRIKLDNYSTQELGKTIVYLDGSSQSCRFRECNMGNLICDAMINNNLRHTDEMFWNHVSMCILNGGGIRSPIDERNNGTITWENLAAVLPFGGTFDLVQLKGSTLKKAFEHSVHRYGQSTGEFLQVGGIHVVYDLSRKPGDRVVKLDVLCTKCRVPSYDPLKMDEVYKVILPNFLANGGDGFQMIKDELLRHDSGDQDINVVSTYISKMKVIYPAVEGRIKFSTGSVRASSPSPL”, the “soluble on expression in E. coli” value is reported as “soluble”.
With “AEAQNDPLLPGYSFNAHLVAGLTPIEANGYLDFFIDRPLGMKGYILNLTIRGQGVVKNQGREFVCRPGDILLFPPGEIHHYGRHPEAREWYHQWVYFRPRAYWHEWLNWPSIFANTGFFRPDEAHQPHFSDLFGQIINAGQGEGRYSELLAINLLEQLLLRRMEAINESLHPPMDNR” the “soluble on expression in E. coli” value was “soluble”.
For “MSIIGRFKDIMSANINALLDKAENPEKMVDQYLRNMNSDLAKVKAETAAVMAEEQRAKREYHECQADMEKMESYAMKALQAGNESDARKFLERKTSLESKLSELQAANQIAATNAAQMRKMHDKLVSDIGELEARKNMIKAKWAVAKTQERMNKLGASVSSTSQSMSAFGRMEDKVNKALDQANAMAELNSAPQDDMADLSAKYDTGGSSQVDDELAALKAKMMLDKLEHHHHHH”, the “soluble on expression in E. coli” value was “not soluble”.
With “MSELHFMSLEELDNELEKDDSGIYFIKDYNDNIIYIGKAFSIKSRVLAHFNSYSNIKEYVHLFNKVAYLIEDSLLKRSLLQVTYMIKYKPVLNKEVQKEFPELYTQYIKQTNKKSMLLEIEEAKEKRDELKNRLVKLVGGKTMFYDIISLLNNGYNYHVLAKVLSIELQTLIIMKEHRNKFPMPHNYKRTIKHQDIMYALSGKKNLSTSRLNT” the “soluble on expression in E. coli” value was “soluble”.
For “MGSDKIHHHHHHMANVTPEIVKALFTGFGKNFKDGLAKAPSQYTAIATVIKSTTASNTYAWLGQMPKLTEWIGKRAITAIQSHGYAIVNKDWASGVEIKRTDIEDDNIGVYSPLVEELGRSAGEQPDELVFGALKGGFTTECYDKQYFFDTDHPVGANPDGTSPTSVSNITDDGTSVTADGAWYLLDCSRALKPLIFQQRKPATPAQMTDANAQKVFEDNVYTRCNVGYGFWQMAHAVKGKLNAENLWKAIKAMRAVHSDGGHKLGIKPTHIVVPTSLQEEAVKLLERELRVEDGAAVDNEFKNMKLTLIVADYL”, the “soluble on expression in E. coli” value was “not soluble”.
In the case of “MNNAKTAVTSRSVISLNSPIFLRQFYFEILNRLQVSSIIPKSKSEYVDAHMIRVSIEPQPTAFAYVFEYSTISTEPDNWNFAGASSKPEATFSILDPCRDYQFRVIIVIRSSNPAAVFDIIRPRPIPVQLPPFILTQPQISIEMPRVNNFNASGDLKLYVKWSLPYGYIDGDIYSYESPALYPIQCSTPEGEIPTPRIEIVKGGGRLAVWLPPSVLEARCRMWVEVRMLPRCVRLEPFNIQKNIEIDCSKNPSLDVCSKGR”, the “soluble on expression in E. coli” value is reported as “not soluble”.
In the case of “MANQKKDSLSTLFSEEVHGPFVTFLFNTHVAHQNVEKDSLVLKNFAKAAKTRFEKKFPEEKWSVFQEKIDALLADASFWRNGTASVSIILSPENTFVQRLDVPVDDQYYVDTIPYLLGLVKDKQFNYHYYLLALNRDSMKLYKVDHTTVTPVELPKDAPTDVVTALGDELTGGNLNFSTQGSSNGSKEGVAYHSINTKDKEVEIDWVNYYQAVDTFLKDQLDNPEKLPLYLYALPENQTLFKKIAKNPYYDCSISVAASPAQATIQDIRSASEKIAAELTEKETASYNKLLDRKFLDQFTDISPAAADGKISHLFIATSLFVTENNEMSSEEYDRRKLLNTIAYQVIQNGGQVFVLDQKAAPDEKSLAAILRY”, the “soluble on expression in E. coli” value is reported as “not soluble”.
For “MEDEDVPVCWICNEELGNERFRACGCTGELENVHRSCLSTWLTISRNTACQICGVVYNTR”, the “soluble on expression in E. coli” value was “soluble”.
